Results on four molecules are retold here after publication PMC9780825 (2022).

By Ki is commonly meant the dissociation constant of the complex between target and ligand, obtained from inhibition or displacement. Read a high Ki as lower affinity. What is called Kd is the free concentration of one partner at which half of the binding sites on the other are occupied at equilibrium, for simple one-to-one binding.

For assay [1], the target named is T1, Kv1.3 (mKate2-tagged, K-ΔKv1.3) 53-C-terminus (deletion M1-D52) (Homo sapiens, UniProt P22001). The experiment in a line: fluorescent competitive binding assay (confocal, HEK293 cells).
Assay [2] addresses Kv1.3 (mKate2-tagged, K-Kv1.3) (Homo sapiens, UniProt P22001). The experiment in a line: confocal fluorescence binding on HEK293 cells.
Assay [3] concerns the target T1, Kv1.3 (mKate2-tagged, K-ΔKv1.3) …. The experiment in a line: confocal fluorescence binding on HEK293 cells.

No end group written: not given here.

T1 sequence (P22001 53-575, stated change not applied): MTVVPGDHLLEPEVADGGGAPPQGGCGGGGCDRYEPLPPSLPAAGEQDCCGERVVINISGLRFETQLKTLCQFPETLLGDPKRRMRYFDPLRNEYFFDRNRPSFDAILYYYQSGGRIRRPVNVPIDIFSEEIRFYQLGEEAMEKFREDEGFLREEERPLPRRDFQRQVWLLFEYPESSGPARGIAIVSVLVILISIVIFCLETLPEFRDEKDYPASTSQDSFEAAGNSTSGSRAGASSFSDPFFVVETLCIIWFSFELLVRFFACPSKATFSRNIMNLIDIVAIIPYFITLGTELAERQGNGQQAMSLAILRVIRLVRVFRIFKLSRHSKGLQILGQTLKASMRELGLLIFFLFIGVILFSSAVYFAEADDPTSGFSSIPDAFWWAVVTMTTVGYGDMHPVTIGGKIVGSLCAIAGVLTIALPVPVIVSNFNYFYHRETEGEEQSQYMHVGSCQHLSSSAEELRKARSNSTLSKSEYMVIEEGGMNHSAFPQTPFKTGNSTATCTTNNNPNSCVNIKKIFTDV
Sequence of Kv1.3 (mKate2-tagged, K-Kv1.3) (P22001 whole entry): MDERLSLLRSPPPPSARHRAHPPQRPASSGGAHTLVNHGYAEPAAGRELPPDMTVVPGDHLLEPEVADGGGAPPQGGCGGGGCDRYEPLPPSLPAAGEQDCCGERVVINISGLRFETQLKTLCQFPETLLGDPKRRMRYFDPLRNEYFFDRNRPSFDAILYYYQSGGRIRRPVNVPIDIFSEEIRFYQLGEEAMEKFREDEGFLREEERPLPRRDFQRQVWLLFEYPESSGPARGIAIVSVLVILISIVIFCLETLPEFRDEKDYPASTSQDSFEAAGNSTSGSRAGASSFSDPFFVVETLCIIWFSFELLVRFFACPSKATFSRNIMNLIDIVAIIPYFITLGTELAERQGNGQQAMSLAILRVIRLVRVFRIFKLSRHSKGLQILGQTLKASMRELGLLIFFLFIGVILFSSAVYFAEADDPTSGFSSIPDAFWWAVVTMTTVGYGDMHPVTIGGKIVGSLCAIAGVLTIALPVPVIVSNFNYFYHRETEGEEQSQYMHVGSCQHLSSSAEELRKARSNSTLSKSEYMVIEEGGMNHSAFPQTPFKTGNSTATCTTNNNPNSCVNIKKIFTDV

B1: Hongotoxin 1 (HgTx1) (peptide)
chain: TVIDVKCTSPKQCLPPCKAQFGIRAGAKCMNGKCKCYPH
modifications: ends and bridges not checked; cysteine pairing not given here
The molecule B1 had a Ki in assay [1] of 0.2 nM.

B2: Hongotoxin 1 (Atto488-labeled, A-HgTx) (peptide)
chain: Atto488-TVIDVKCTSPKQCLPPCKAQFGIRAGAKCMNGKCKCYPH
modifications: ends and bridges not checked
Consider B2, for which the Kd in assay [2] turned out to be 0.3 nM; in assay [3], 0.48 nM.

B3: Kaliotoxin 1 (KTx1) (peptide)
chain: GVEINVKCSGSPQCLKPCKDAGMRFGKCMNRKCHCTPK
modifications: ends and bridges not checked; cysteine pairing not given here
Consider B3, for which, in assay [1], the inhibition constant (Ki) was found to be 4 nM.

B4: Agitoxin 2 (AgTx2) (peptide)
chain: GVPINVSCTGSPQCIKPCKDAGMRFGKCMNRKCHCTPK
modifications: ends and bridges not checked; cysteine pairing not given here
As for B4, the Ki in assay [1] amounted to 1.1 nM. This Ki lies about 3.6-fold lower than the previous one.
